Laboratory results from patent EP2922560B1 (Biotechnologicky Ustav AV CR, v.v.i., dated 2017).
Changes are numbered by the printed parent chain.

T1: native human IL-23 receptor on the surface of cultured human cells (K-562, THP-1, Jurkat) and primary human … (human, UniProt Q5VWK5 24-629)
T1 construct: whole, on cells; endogenous expression; the cell line is named under assay; also called cell surface IL-23R
T1 sequence (looked up): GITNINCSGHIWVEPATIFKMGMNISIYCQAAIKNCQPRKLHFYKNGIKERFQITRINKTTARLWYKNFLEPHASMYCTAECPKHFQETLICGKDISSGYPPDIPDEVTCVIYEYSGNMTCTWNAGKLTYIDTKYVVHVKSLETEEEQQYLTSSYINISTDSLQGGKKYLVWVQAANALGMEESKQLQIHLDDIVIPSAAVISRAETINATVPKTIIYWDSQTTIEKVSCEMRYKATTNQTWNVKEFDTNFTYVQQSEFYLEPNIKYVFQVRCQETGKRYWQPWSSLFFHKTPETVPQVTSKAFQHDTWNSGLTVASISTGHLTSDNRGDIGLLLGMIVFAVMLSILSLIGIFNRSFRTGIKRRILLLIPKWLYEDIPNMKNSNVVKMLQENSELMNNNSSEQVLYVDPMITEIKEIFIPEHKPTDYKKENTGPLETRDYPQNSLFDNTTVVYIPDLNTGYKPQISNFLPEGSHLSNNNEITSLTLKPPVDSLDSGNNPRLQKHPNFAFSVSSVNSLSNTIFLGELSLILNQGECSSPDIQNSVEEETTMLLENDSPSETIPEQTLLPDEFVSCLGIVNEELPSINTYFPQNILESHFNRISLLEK

T2: H-exIL-23R, N-terminally His6-tagged extracellular domain of human IL-23 receptor (residues 24 to 350) (human, UniProt Q5VWK5 24-350)
T2 construct: range 24-350; also called recombinant extracellular IL-23 receptor; not shown: N-terminal His6 tag
T2 sequence (looked up): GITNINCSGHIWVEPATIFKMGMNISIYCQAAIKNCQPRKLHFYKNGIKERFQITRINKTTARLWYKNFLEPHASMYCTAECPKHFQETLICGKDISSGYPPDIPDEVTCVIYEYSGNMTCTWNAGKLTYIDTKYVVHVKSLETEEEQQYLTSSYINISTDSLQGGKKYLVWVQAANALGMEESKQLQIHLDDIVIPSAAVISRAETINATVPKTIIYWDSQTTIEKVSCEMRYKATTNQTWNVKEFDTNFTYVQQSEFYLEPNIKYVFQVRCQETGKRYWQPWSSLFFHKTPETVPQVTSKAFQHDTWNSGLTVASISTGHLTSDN

B1: DH-p19, mature p19 subunit of human IL-23 with N-terminal double-His6-TEV tag (ligand, UniProt Q9NPF7 20-189, looked up)
chain: RAVPGGSSPAWTQCQQLSQKLCTLAWSAHPLVGHMDLREEGDEETTNDVPHIQCGDGCDPQGLRDNSQFCLQRIHQGLIFYEKLLGSDIFTGEPSLLPDSPVGQLHASLLGLSQLLQPEGHHWETQQIPSLSPSQPWQRLLLRFKILRSLQAFVAVAARVFAHGAATLSP
notes: mature; not shown: N-terminal double-His6-TEV purification tag
B2: DH-MBP-p19, double His6-maltose-binding protein-p19 fusion with C-terminal 40 aa prolongation (ligand, human)
chain: RAVPGGSSPAWTQCQQLSQKLCTLAWSAHPLVGHMDLREEGDEETTNDVPHIQCGDGCDPQGLRDNSQFCLQRIHQGLIFYEKLLGSDIFTGEPSLLPDSPVGQLHASLLGLSQLLQPEGHHWETQQIPSLSPSQPWQRLLLRFKILRSLQAFVAVAARVFAHGAATLSPLEKKTCTSRASSTTTTTTEIRLLTKPERKLSWLLPPLSNN
notes: 69 kDa, soluble, E. coli BL21(DE3), Ni-NTA purified; also called soluble p19; p19-MBP fusion protein; not shown: N-terminal double His6 tag; followed by TEV site and cloning-site residues that are not pri
B3: His6-REX125-TolA-AVI (designed binder)
chain: LAEAKVLANRELDKYGVSDHYKNWINPARRVRPVKWLIDAILAALPQKQAEEAAAKAAADAKAKAEADAKAAEEAAKKAAADAKKKAEAEAAKAAAEAQKKAEAAAAALKKKAEAAEAAAAEARKKAATEAAEKAKAEAEKKAAAEKAAADKKAAAEKAAADKKAAEKAAAEKAAADKKAAAEKAAADKKAAAAKAAAEKAAAAKAAAEADDIFGELSSGKNAPKTGGGAKGNNASPAGSGNTKNNGASGADINNYAGQIKSAIESKFYDASSYAGKTCTLRIKLAPDGMLLDIKPEGGDPALCQAALAAAKLAKIPKPPSQAVYEVFKNAPLDFKPGLNDIFEAQKIEWHE
modifications: in vivo biotinylated at the AviTag (BirA)
notes: also called REX-TolA-AVI; not shown: N-terminal His6 tag
B4: His6-REX009-TolA-AVI (designed binder)
chain: B3 chain with H20Y, W24R, R29C, R30H, R32L, P33S, W36S, L37N, A40W, A44S
modifications: in vivo biotinylated at the AviTag (BirA)
notes: as for B3
B5: His6-REX115-TolA-AVI (designed binder, not shown: small tags and cut ends)
chain: B3 chain with H20V, W24T, P27I, R29I, R30P, P33V, W36R, L37V, A40W, A44V
modifications: in vivo biotinylated at the AviTag (BirA)

Key:
[1] = target: T1, native human IL-23 receptor on the …; experiment: flow cytometry on THP-1 and K-562 cells, 10 µg/ml DH-p19, anti-p19 mAb and Cy5 anti-mouse IgG
[2] = target: T2, H-exIL-23R, N-terminally His6-tagged …; experiment: ELISA, immobilized H-exIL-23R; confirmed in the reversed setup
[3] = target: T2, H-exIL-23R, N-terminally His6-tagged …; experiment: ELISA, immobilized exIL-23R (Figure 1 legend)
[4] = target: T1, native human IL-23 receptor on the …; experiment: cell-based or functional assay
[5] = target: T3, recombinant human IL-23R-IgG chimera (R&D Systems) (human, UniProt Q5VWK5 24-353, glycosylated); experiment: SPR, REX125-TolA-AVI immobilized, IL-23R-IgG chimera flowed, sodium acetate buffer pH 5.0, 25°C; more complex interaction mode
T3 construct: bought; soluble, glycosylated, secreted by an NS0-derived mouse myeloma cell line; also called IL-23R-IgG receptor chimera

[6] = target: T3, recombinant human IL-23R-IgG chimera …; experiment: SPR, REX009-TolA-AVI immobilized, IL-23R-IgG chimera 20-200 nM flowed, sodium acetate buffer pH 5.0, 25°C, 1:1 model, global fit

Row | Binder | Th-17+ cell expansion (IL-17-producing cells) in PBMC suspensions after 3 days, normalized to IL-23 only = 1 [4] | Th-17+ cell expansion in separated T-cell samples after 3 days, normalized to IL-23 only = 1 [4] | further results
1 | B1 |  |  | binding result [1]: binds; binding result [2]: binds
2 | B2 |  |  | binding result [3]: binds
3 | B3 | 0.42 normalized cell count (IL-23 only = 1) | 0.65 normalized cell count (IL-23 only = 1) | Kd [5]: ~1 nM
4 | B4 | 0.62 normalized cell count (IL-23 only = 1) | 0.8 normalized cell count (IL-23 only = 1) | Kd [6]: 1.3 nM
5 | B5 | 0.55 normalized cell count (IL-23 only = 1) | 0.69 normalized cell count (IL-23 only = 1) | 
